Measured values from patent US20080044425A1, “POLYPEPTIDES HAVING PHOSPHOLIPASE A2 ACTIVITY” (KYOWA HAKKO KOGYO CO., LTD., priority 2000, published 2008).

Test: Measurement of PLA2 activity in the soluble fraction of insect cells (Sf9) expressing the human-derived polypeptide
Assay type: biochemical
Settings: 4 mmol/l calcium chloride, 37° C., 2 hours, control: pVL1393 vector virus, FIG. 10
Method: The supernatant containing the virus recovered in (2) above (2 ml) was added to 28 ml of 1.5×10^6/ml suspending Sf9 cells, and the cells were cultured at 27° C. for 4 days in the suspending state. The cells were recovered by centrifugation at 800 rpm for 5 minutes and washed with phosphate-buffered saline (PBS). The resulting cells were suspended in a buffer consisting of 25 mmol/l Tris-HCl (pH 7.5), 140 mmol/l sodium chloride, 5 mmol/l potassium chloride, 2 mmol/l EDTA and 1× complete, EDTA-free (Boehringer Mannheim) and disrupted on ice using a sonicator. The extract was centrifuged at 15,000 rpm for 15 minutes, and the supernatant was used for the measurement of PLA2 activity.
One hundred μl of a reaction solution [100 mmol/l Tris-HCl (pH 7.5), 4 mmol/l calcium chloride, 1 mg/ml bovine serum albumin (substantially fatty acid-free, Sigma) and 8 μmol/l Triton X-100] containing 1-palmitoyl-2-[1-^14C]arachidonyl-phosphatidylcholine (48 mCi/mmol, Daiichi Kagaku Yakuhin) (2 μmol/l) and the supernatant obtained above was incubated at 37° C. for 2 hours, followed by the addition of Dole reagent (containing 2-propanol, heptane and sulfuric acid at a ratio of 78:20:2) to stop the reaction. To the reaction mixture were further added 0.3 ml of heptane and 0.2 ml of water, and mixing was effected by rotation. […] The amount of the polypeptide was determined using the Bio Rad Protein Assay method. […]

B1: human-derived polypeptide of the present invention: novel human cytoplasmic phospholipase A2 polypeptide having the amino acid sequence shown in SEQ ID NO: 1, Flag-tagged, expressed in insect cells (protein, listed as Homo sapiens)
chain: MLWALWPRWLADKMLPLLGAVLLQKREKRGPLWRHWRRETYPYYDLQVKVLRATNIRGTDLLSKADCYVQLWLPTASPSPAQTRIVANCSDPEWNETFHYQIHGAVKNVLELTLYDKDILGSDQLSLLLFDLRSLKCGQPHKHTFPLNHQDSQELQVEFVLEKSQVPASEVITNGVLVAHPCLRIQGTLRGDGTAPREEYGSGQLQLAVPGAYEKPQLLPLQPPTEPGLPPTFTFHVNPVLSSRLHVELMELLAAVQSGPSTELEAQTSKLGEGGILLSSLPLGQEEQCSVALGEGQEVALSMKVEMSSGDLDLRLGFDLSDGEQEFLDRRKQVVSKALQQVLGLSEALDSGQVPVVAVLGSGGGTRAMSSLYGSLAGLQELGLLDTVTYLSGVSGSTWCISTLYRDPAWSQVALQGPIERAQVHVCSSKMGALSTERLQYYTQELGVRERSGHSVSLIDLWGLLVEYLLYQEENPAKLSDQQEAVRQGQNPYPIYTSVNVRTNLSGEDFAEWCEFTPYEVGFPKYGAYVPTELFGSELFMGRLLQLQPEPRICYLQGMWGSAFATSLDEIFLKTAGSGLSFLEWYRGSVNITDDCQKPQLHNPSRLRTRLLTPQGPFSQAVLDIFTSRFTSAQSFNFTRGLCLHKDYVAGREFVAWKDTHPDAFPNQLTPMRDCLYLVDGGFAINSPFPLALLPQRAVDLILSFDYSLEAPFEVLKMTEKYCLDRGIPFPSIEVGPEDVEEARECYLFAKAEDPRSPIVLHFPLVNRTFRTHLAPGVERQTAEEKAFGDFVINRPDTPYGMMNFTYEPQDFYRLVALSRYNVLNNVETLKCALQLALDRHQARERAGA
modifications: Flag tag
For B1, the “PLA2 activity that hydrolyzes the ester bond at the sn-2-position in 1-palmitoyl-2-arachidonyl-phosphatidylcholine” value was “has PLA2 activity”.
